We go through 2 substances from paper PMC7350259.

Test [1] has as its target human rhinovirus strain RV2 (purified virus) (human rhinovirus 2 (RV-A, minor group)). In words: ELISA; fluid phase competition: RV89 (25 µg/mL) or RV2 (2 µg/mL in the methods, 5 µg/mL in the results) pre-incubated with soluble receptor (50 µg/mL) overnight at 4 °C, then added to plate-bound receptor.
In test [2] the target is human rhinovirus strain RV89 (purified virus) (human rhinovirus 89 (RV-A, major group)). The description is as above.

In the case of “recombinant human low density lipoprotein receptor (LDLR) (from UniProt P01130 22-788)”, the percent inhibition of RV2 binding to plate-bound LDLR (50 µg/mL LDLR) in test [1] was over 60%. As for “recombinant human ICAM-1/CD54 (intercellular adhesion molecule 1) (from UniProt P05362 28-480) (receptor)”, the percent inhibition of RV89 binding to plate-bound ICAM-1 (50 µg/mL ICAM-1, 25 µg/mL RV89) in test [2] is over 95%.
